Consider 1 variant from publication PMC7395175.

B1: HA-tagged zDHHC5 [murine] / human PLM expressed in HEK-derived FT-293 cells [human] (parent)
chain 1: MPAESGKRFKPSKYVPVSAAAIFLVGATTLFFAFTCPGLSLNVSPAVPIYNAIMFLFVLANFSMATFMDPGIFPRAEEDEDKEDDFRAPLYKTVEIKGIQVRMKWCATCRFYRPPRCSHCSVCDNCVEEFDHHCPWVNNCIGRRNYRYFFLFLLSLTAHIMGVFGFGLLYVLYHIEELSGVRTAVTMAVMCVAGLFFIPVAGLTGFHVVLVARGRTTNEQVTGKFRGGVNPFTNGCCNNVSRVLCSSPAPRYLGRPKKEKTIVIRPPFLRPEVSDGQITVKIMDNGIQGELRRTKSKGSLEITESQSADAEPPPPPKPDLSRYTGLRTHLSLATNEDSSLLGKDSPPTPTMYKYRPGYSSSSTSAAMPHSSSAKLSRGDSLKEPTSIADSSRHPSYRSEPSLEPESFRSPTFGKSFHFDPLSSGSRSSSLKSAQGTGFELGQLQSIRSEGTTSTSYKSLANQTRNGSLSYDSLLTPSDSPDFESVQAGPEPDPPLGYTSPFLSARLAQQREAERHPRLLPTGPPHREPSPVRYDNLSRHIVASLQEREKLLRQSPPLAGREEEPGLGDSGIQSTPGSGHAPRTSSSSDDSKRSPLSKTPLGRPAVPRFGKPDGLRSRGLGSPEPGTTAPYLGRSISYSSQKAPSGVSETEEVALQPLLTPKDEVQLKTTYSKSNGQPKSIGSASPGPGQPPLSSPTRGGVKKVSGVGGTTYEISV
chain 2: ESPKEHDPFTYDYQSLQIGGLVIAGILFILGILIVLSRRCRCKFNQQQRTGEPDEEEGTFRSSIRRLSTRRR

Variants of B1 are the subject of this test. Nature of the test: co-immunoprecipitation (HA IP, Western blot quantified). As to conditions: with human PLM expressed in HEK-derived FT-293 cells [human]; n = 3; read off a plot.
Turning to chain 1 C236A C237A, the response worked out at 0.79 PLM/HA.
